Here are results for one substance from patent US20110064751A1.

pKd: −log10 of the molar value.

Assay [1] addresses Extra Domain B of fibronectin (EDB) (UniProt P02751). Description: SPR (BIACORE), EDB immobilized on the chip, construct as analyte. (Surface plasmon resonance follows binding to a sensor surface in real time, without labels.)
Assay [2] shares this target. Description: BIACORE SPR, EDB immobilized on the chip, analyte at 1.56, 3.125 and 6.25 nM.

Chain of L19 diabody-IL2 fusion protein, 12 amino acid linker (VH): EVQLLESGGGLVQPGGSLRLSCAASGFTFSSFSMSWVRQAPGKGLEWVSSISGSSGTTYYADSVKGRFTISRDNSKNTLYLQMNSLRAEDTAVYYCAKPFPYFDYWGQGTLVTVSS
Chain of L19 diabody-IL2 fusion protein, 12 amino acid linker (chain): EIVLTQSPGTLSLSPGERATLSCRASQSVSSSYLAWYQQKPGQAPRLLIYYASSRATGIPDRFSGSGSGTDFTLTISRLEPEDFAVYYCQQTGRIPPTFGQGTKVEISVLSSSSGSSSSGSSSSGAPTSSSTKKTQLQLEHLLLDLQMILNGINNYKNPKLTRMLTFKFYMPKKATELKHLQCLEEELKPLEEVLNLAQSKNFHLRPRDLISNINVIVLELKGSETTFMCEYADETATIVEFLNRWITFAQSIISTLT
Chain of Extra Domain B of fibronectin (EDB) (P02751 1266-1356 limits assumed): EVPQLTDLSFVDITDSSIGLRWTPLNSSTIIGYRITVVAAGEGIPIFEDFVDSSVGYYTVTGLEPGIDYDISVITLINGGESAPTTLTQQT

One may read the pKd as the Kd on a negative log10 scale, so that one unit is a factor of ten. The low end stands for a large Kd, the high end for a small Kd. A word on the koff: it is a measure of how fast the partners let go of each other. Read a high koff as fast dissociation. For orientation: kon means the rate constant with which the complex forms. Low readings indicate slower complex formation, high ones faster complex formation. As to “L19 diabody-IL2 fusion protein, 12 amino acid linker”, in assay [1], the pKd is 9.44. In addition, in assay [2], the pKd is 9.44, the koff amounted to 0.000769 s⁻¹ and the kon came out at 2.13e+06 M⁻¹ s⁻¹.
